One experiment addresses T1, EGFR receptor (UniProt P00533 25-645, limits assumed).
T1 construct: also called Her1; ErbB1
Kind of experiment: ELISA.

For the next experiment, the target named is T2, HER2 receptor (UniProt P04626 23-652, limits assumed).
T2 construct: also called Neu; ErbB2
Kind of experiment: ELISA.

The next experiment addresses T3, HER3 receptor (UniProt P21860 20-643, limits assumed).
T3 construct: also called ErbB3
Kind of experiment: ELISA.

The target in experiment [1] is T4, human HER4-Fc (human, UniProt Q15303 26-651).
T4 construct: Bought protein; also called HER4-Fc antigen; not shown: Fc part of the bought fusion protein, not described
T4 sequence: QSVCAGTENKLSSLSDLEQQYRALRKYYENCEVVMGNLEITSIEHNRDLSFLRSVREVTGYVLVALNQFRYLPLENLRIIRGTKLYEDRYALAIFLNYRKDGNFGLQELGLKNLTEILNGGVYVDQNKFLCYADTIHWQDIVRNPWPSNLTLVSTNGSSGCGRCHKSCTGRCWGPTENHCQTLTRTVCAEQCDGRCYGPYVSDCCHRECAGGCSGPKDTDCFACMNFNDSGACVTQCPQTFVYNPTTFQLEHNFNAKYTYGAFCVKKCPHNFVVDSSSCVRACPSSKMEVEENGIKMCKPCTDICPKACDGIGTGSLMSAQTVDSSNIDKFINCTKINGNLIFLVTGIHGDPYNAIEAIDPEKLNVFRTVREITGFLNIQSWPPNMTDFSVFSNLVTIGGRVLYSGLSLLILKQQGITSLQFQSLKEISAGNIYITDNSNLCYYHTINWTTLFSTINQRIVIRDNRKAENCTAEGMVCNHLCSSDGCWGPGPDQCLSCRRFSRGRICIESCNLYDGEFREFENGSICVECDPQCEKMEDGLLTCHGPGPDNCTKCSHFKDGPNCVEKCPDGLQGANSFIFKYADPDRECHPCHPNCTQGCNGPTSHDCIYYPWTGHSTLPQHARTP
Kind of experiment: ELISA, human HER4-Fc coated, concentration giving 50% absorbance. How it is done:
(§1) Ninety six-well enzyme immunoassay plates (Nunc Maxisorp) were coated overnight at 4° C. with HER4-Fc antigen at a concentration of 250 ng/ml in PBS pH 7.4. After four washes in PBS, containing 0.1% Tween 20 (PBS-T), plates were saturated with a 2% solution of bovine serum albumin (BSA) in PBS-T buffer for 2 h at 37° C. Two-fold or ten-fold serial dilutions of purified HER4-specific mAbs were added after four washes in PBS-T and plates were incubated at 37° C. for 2 h. Following four washes in PBS-T, 100 μl of a peroxidase-conjugated goat anti-human F(ab′)2 antibody (Jackson Immunoresearch) were added to each well. The conjugate was used at a 1:5000 dilution in PBS-T-2% BSA. The plates were incubated at 37° C. for 1 h and then washed three times in PBS-T and once in PBS. Finally a Tetramethylbenzidine solution (Sigma) was added for 30 min at ambient temperature in the dark. The reaction was stopped by adding 50 μl/well 1M […] and the absorbance was measured at 450 nm. […] HER4-specific antibodies D5 and C6, giving 50%-absorbance at concentration of 20 ng/ml and 100 ng/ml respectively, on human HER4-Fc, are more efficient for binding than F4 and H2, which gave a 50%-absorbance at concentration around 1-5 μg/ml (FIG. 1).

Experiment [2] deals with T4, human HER4-Fc. Kind of experiment: ELISA, HER4-Fc coated at 250 ng/ml, IgG in solution. How it is done:
as §1

Our source for the binding result and EC50 values is patent US20230040928A1 (INSERM INSTITUT NATIONAL DE LA SANTE ET DE LA RECHERCHE …, published 2023).

T3 sequence (P21860 20-643 limits assumed): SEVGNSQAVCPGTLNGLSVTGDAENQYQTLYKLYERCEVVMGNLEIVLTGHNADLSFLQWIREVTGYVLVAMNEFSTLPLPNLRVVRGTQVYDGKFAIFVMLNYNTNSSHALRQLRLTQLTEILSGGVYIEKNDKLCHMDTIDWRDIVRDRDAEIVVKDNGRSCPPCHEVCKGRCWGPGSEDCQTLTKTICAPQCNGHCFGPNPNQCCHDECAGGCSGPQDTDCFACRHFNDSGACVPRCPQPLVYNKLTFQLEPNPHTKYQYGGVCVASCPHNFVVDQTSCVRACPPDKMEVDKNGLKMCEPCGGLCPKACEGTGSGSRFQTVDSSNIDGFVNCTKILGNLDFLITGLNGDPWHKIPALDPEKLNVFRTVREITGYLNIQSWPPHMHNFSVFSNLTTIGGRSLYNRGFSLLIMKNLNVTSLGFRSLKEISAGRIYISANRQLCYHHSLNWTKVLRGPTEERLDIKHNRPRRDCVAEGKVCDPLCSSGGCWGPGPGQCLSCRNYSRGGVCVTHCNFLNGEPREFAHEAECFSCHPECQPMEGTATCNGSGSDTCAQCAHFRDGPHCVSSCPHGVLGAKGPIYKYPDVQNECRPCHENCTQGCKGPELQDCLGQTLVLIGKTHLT

B1: C6 mAb (antibody, V domains shown)
VH: EVQLVESGGSLVKPGGSLRLSCAASGFTFSNYYMNWVRQAPGKGLEWISSISGSSRYIDYADFVKGRFTISRDNATNSLYLQMNSLRAEDTAVYYCVRSSSDYFGGGMDVWGRGTLVTVSS
VL: QSVLTQPASVSGSPGQSITISCAGTSSDVGGSYYVSWYQQHPGKAPKLMIYYDSYRPSGVSNRFSGSKSGNTASLTISGLQAEDEADYYCSSSTYNSTRVFGGGTKLAVLG
notes: also called antibody C6; Ab C6
On to B1, for which the binding result with EGFR receptor, in the experiment with HER2 receptor and in the experiment with HER3 receptor was “no binding” in each case. The molecule further returned an EC50 with human HER4-Fc [1] of 0.1 µg/mL.

B2: H2 mAb (antibody, V domains shown)
VH: EVQLVESGGSLVKPGGSLRLSCAASGFTFSNNDMNWVRQAPGKGLEWISDINGSSRYIYYADFVKGRFTISRDNATNSLYLQMNSLRAEDTAVYYCVRSSDDYFGGGMDVWGRGTLVTVSS
VL: QSVLTQPASVSGSPGQSITISCAGTSSDVGGYYSVSWYQQHPGKAPKLMIYNDSYRPSGVSNRFSGSKSGNTASLTISGLQAEDEADYYCSSSTYYSTRVFGGGTKLAVLG
notes: also called antibody H2
As to B2, the binding result with EGFR receptor is “no binding”; with HER2 receptor it was “no binding”; with HER3 receptor, “no binding”; with human HER4-Fc [2], “binds”.

B3: F4 mAb (antibody, V domains shown)
VH: EVQLVESGGSLVKPGGSLRLSCAASGFTFSNNDMNWVRQAPGKGLEWISSISGSSRYINYADFVKGRFTISRDNATNSLYLQMNSLRAEDTAVYYCVRSSDDYFGGGMDVWGRGTLVTVSS
VL: QSVLTQPASVSGSPGQSITISCAGTSSDVGGYSGVSWYQQHPGKAPKLMIYNDSYRPSGVSNRFSGSKSGNTASLTISGLQAEDEADYYCSSYTNNSTRVFGGGTKLAVLG
notes: also called antibody F4
Turning to B3, the binding result is “no binding” with EGFR receptor, “no binding” with HER2 receptor, “no binding” with HER3 receptor and “binds” in the experiment with human HER4-Fc [2].

B4: D5 mAb (antibody, V domains shown)
VH: EVQLVESGGSLVKPGGSLRLSCAASGFTFSNYYMNWVRQAPGKGLEWISSIDGSSRYIDYADFVKGRFTISRDNATNSLYLQMNSLRAEDTAVYYCVRSSSDYFGGGMDVWGRGTLVTVSS
VL: QSVLTQPASVSGSPGQSITISCAGTSSDVGGSSYVSWYQQHPGKAPKLMIYYDSYRPSGVSNRFSGSKSGNTASLTISGLQAEDEADYYCSSNTYYSTRVFGGGTKLAVLG
notes: also called antibody D5; anti-HER4 antibody D5
Turning to B4, the binding result in the experiment with EGFR receptor, with HER2 receptor and with HER3 receptor was “no binding” in each case. It took 0.02 µg/mL to reach a half-maximal effect in the experiment with human HER4-Fc [1] (EC50).
